Columns and labels:
[1] = parameters: species or system Nude mice; conditions: mouse, in vivo; for clearance / t1/2, α / t1/2, β / terminal half-life (rounded figures): iv
Description: At predetermined intervals, blood samples (30-60 μl) were taken from the medial saphenous vein by puncture, and the radioactivity of each sample was measured with a Cobra Autogamma counter (Packard, Downers Grove, Ill.). The pharmacokinetic parameters for each radiotracer were calculated from mean blood concentration values observed over the study period using WinNonlin™ 2.1 software (Scientific Consulting, Inc., Lexington, Ky.). The mice were killed at the end of the study, and the liver, muscle, kidneys, and spleen were removed, weighed, and measured for radioactivity. The data are expressed as percentage of injected dose per gram of tissue. In FIG. 15A, the y-axis represents % Injected dose/ml blood; the x-axis represents time in hours. Squares represent Annexin V. Diamonds represent PEG-Annexin V. In FIG. 15B, the y-axis represents % Injected dose/g tissue. From left to right, the paired bars in FIG. 15B represent blood, liver, kidney, spleen, and muscle tissues, respectively. The bars on the left of the paired bars represent Annexin V. The bars on the right of the paired bars represent PEG-Annexin V.

[2] = system: HL60 cells and Raji cells; assay: Flow cytometry of apoptotic cells stained with annexin V-FITC; format: cell-based, human; conditions: 1.0 μM, 22 hours, annexin V-FITC staining
Description: (§1) The 1:30 and 1:60 preps of PEGylated annexin V were tested for their ability to bind to cells that had been treated with Ara-C to induce apoptosis. Human leukemia HL60 or human B-cell lymphoma Raji cells (1×10^6 cells/ml each) were treated with Ara-C at 1.0 μM for 6 hours or 22 hours to induce apoptosis. The cells were then washed twice with PBS and re-suspended in binding buffer (10 mM HEPES/NaOH, pH 7.5 containing 140 mM NaCl and 2.5 mM CaCl2) at a concentration of 1×10^6 cells/ml. Five μl annexin V-FITC solution (50 μg/ml in 50 mM Tris-HCl, pH 7.5, containing 100 mM NaCl) was added into the control cells as well as treated cells. The mixtures were incubated at room temperature for 10 minutes. Apoptotic cells stained with annexin V-FITC (Sigma) were quantified with a Labsystems Fluoroskan FL flow cytometer (Helsinki, Finland) (FIG. 13). […] The cells were washed twice with PBS, centrifuged and counted for cell-associated radioactivity (FIG. 14).
FIG. 13 is a bar graph showing apoptotic index after treatment with 1.0 uM Ara-C as quantified by flow cytometry analysis using annexin V-FITC as fluorescent probe. In FIG. 13, the y-axis represents the percent apoptotic cells; the x-axis represents the time after treatment in hours. […] In FIG. 14, the y-axis represents radioactivity in cpm; the x-axis represents time after treatment in hours. […]

[3] = system: Ara-C treated HL60 and Raji cells (apoptotic cells); assay: Cell binding assay of radiolabeled PEGylated annexin V; parameters: species or system human; conditions: 1.0 μM Ara-C
Description: as §1, with “14). FIG. 13 is a bar graph showing apoptotic index after treatment with 1.0 uM Ara-C as quantified by flow cytometry analysis using annexin V-FITC as fluorescent probe. In FIG. 13, the y-axis represents the percent apoptotic cells; the x-axis represents the time after treatment in hours. […] In FIG. 14, the y-axis represents radioactivity in cpm; the x-axis represents time after treatment in hours. […]” for “14).”

[4] = system: MDA-MB-468 tumors; assay: Autoradiography and TUNEL assay; format: in vivo, mice; conditions: 4 days after treatment, intratumoral distribution of ^111In-DTPA-PEG-AV
Description: Two tumors removed from each group of mice at the end of the gamma imaging session were rapidly frozen, processed, and 8-μm sections were made. The sliced sections were fixed in cold acetone, dried, and exposed to a multipurpose storage phosphor screen for 10 days. A Cyclone™ Storage Phosphor System (Packard Instrument Company, Inc., Meriden, Conn.) was used to obtain autoradiographic images. The radioactivity at selected field of view is expressed as digital light unit per millimeter square (DLU/mm^2).
DNA fragmentation was analyzed by terminal deoxynucleotidyl transferase (TdT)-uridine nick end labeling (TUNEL) using a commercial kit according to the manufacturer provided protocol (Promega, Madison, Wis.). Frozen tissue sections (8 μm) were fixed with 4% paraformaldehyde (methanol-free) for 10 minutes at room temperature. The sections were washed with PBS two times (5 minutes each) and incubated with equilibration buffer (Promega) for 10 minutes at room temperature. […] Images were recorded using an Olympus fluorescence microscope (Olympus, Melville, N.Y.) with 520 nm filter and 20× object lens. Apoptotic cells per slide view were quantified by AAB colony counting software (Advanced American Biotechnology, Fullerton, Calif.) and expressed as number per field of view (0.016 mm^2).

[5] = system: MDA-MB-468 tumors; parameters: species or system mice; conditions: mouse, in vivo
Description: The following materials and methods were used in this example. Human breast adenocarcinoma MDA-MB-468 cells were maintained in 1:1(v/v) Dulbecco's modified Eagle's medium (DMEM)/Ham's F-12 mixture supplemented with 10% fetal bovine serum (FBS) (Gibco Laboratories, Grand Island, N.Y.) at 37 C in 5% CO2/95% air. […] Mice in Group I were not treated and were used as a control. In Group II, mice were injected intravenous with PG-paclitaxel (PG-TXL) at an equivalent paclitaxel (Taxol, TXL) dose of 100 mg/kg 1 day before the injection of radiotracer. PG-TXL is a water-soluble polymeric conjugate of paclitaxel and poly(l-glutamic acid). […] The conjugate has the same mechanism of action as paclitaxel. […] Radioactivity of each sample was measured with the Cobra Auto-gamma Counter (Packard, Downers Grove, Ill.). The percentage of the injected dose per gram of tissue (% ID/g tissue) was calculated for each sample. In a separate experiment, tumors were histologically analyzed to quantify apoptotic index induced by drug treatments. […] Apoptosis index was scored in coded slides by microscopic examination at 400× magnification. Five fields of nonnecrotic areas were randomly selected in each histological specimen, and in each field the number of apoptotic nuclei were recorded as numbers per 100 nuclei and were expressed as a percentage. […]

For “^111In-DTPA-annexin V: ^111In-labeled annexin V with DTPA, without PEG; comparison [reference compound]”, the clearance [1] was 0.4 mL/h, the “t1/2, α” value [1] was 0.07 h and the “t1/2, β” value [1] was 17.4 h. For the same molecule, the “terminal half-life (rounded figures)” value [1] was 17 h.
With `Nc1ccn([C@@H]2O[C@H](CO)[C@@H](O)[C@@H]2O)c(=O)n1` [Ara-C] the “increase of percentage of apoptotic cells” value [2] was 4-10 fold.
With “1:60 prep of ^111In-DTPA-PEG-AV: ^111In-labeled annexin V PEGylated with SCN-PEG-DTPA at molar ratio 1:60” the “binding to Ara-C treated cells” value ([3]; Raji cells) was “did not show binding to the Ara-C treated cells”.
For “poly (L-glutamic acid)-paclitaxel conjugate [PG-TXL]”, the “apoptotic response of the tumor to treatment” value [4] was “increased apoptosis”.
For “1:30 prep of ^111In-DTPA-PEG-AV: ^111In-labeled annexin V PEGylated with SCN-PEG-DTPA at molar ratio 1:30”, the “increase of cell associated radioactivity after treatment with Ara-C” value ([3]; HL60 and Raji cells) was 4-6 fold and the “change of tumor uptake 1 day after PG-TXL” value [5] was “slight but non-significant increase of the radiotracer in the tumor”.
In the case of “1:15 prep ^111In-DTPA-PEG-annexin V: ^111In-labeled annexin V PEGylated with SCN-PEG-DTPA, 1:15 prep”, the “percentage of injected dose per gram of tissue, blood” value [1] is reported as 0.36±0.05%, the “percentage of injected dose per gram of tissue, kidney” value [1] is reported as 22.35±4.74% and the “percentage of injected dose per gram of tissue, liver” value [1] is reported as 8.37±2.76%. For the same molecule, the “percentage of injected dose per gram of tissue, muscle” value [1] was 0.75±0.04%, the “percentage of injected dose per gram of tissue, spleen” value [1] was 6.75±0.44% and the clearance [1] was 0.01 mL/h. For the same molecule, the “t1/2, α” value [1] was 4.90 h, the “t1/2, β” value [1] was 26.3 h and the “terminal half-life (rounded figures)” value [1] was 26 h.
